Experimental data published in the supplement of paper PMC10567573.

B1: RIPK4 (parent)
chain: VSVNAQTLDGRTPLHLAAQRGHYR

Variants of: B1
Experiment: protein stability index of a GFP-peptide fusion (GPS, HEK-293T) (PSI 1-6); higher = more stable
Conditions: c terminus: a fixed tail appended
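Also: lentivirally expressed fusions sorted by FACS into six bins by GFP to DsRed ratio, PSI derived from sequencing read proportions per bin multiplied by bin number.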

Variant	protein stability index
VSVNAQRLDGRTPLHLAAQRGHYR [T7R]	3.32
VSVNAQSLDGRTPLHLAAQRGHYR [T7S]	3.29
VSVNAQVLDGRTPLHLAAQRGHYR [T7V]	3.23
VSVNAQWLDGRTPLHLAAQRGHYR [T7W]	2.32
VSVNAQYLDGRTPLHLAAQRGHYR [T7Y]	2.97
VSVNAQTADGRTPLHLAAQRGHYR [L8A]	3.92
VSVNAQTCDGRTPLHLAAQRGHYR [L8C]	3.33
VSVNAQTDDGRTPLHLAAQRGHYR [L8D]	3.74
VSVNAQTEDGRTPLHLAAQRGHYR [L8E]	4.33
VSVNAQTFDGRTPLHLAAQRGHYR [L8F]	3.29
VSVNAQTGDGRTPLHLAAQRGHYR [L8G]	4.26
VSVNAQTHDGRTPLHLAAQRGHYR [L8H]	3.73
VSVNAQTIDGRTPLHLAAQRGHYR [L8I]	3.58
VSVNAQTKDGRTPLHLAAQRGHYR [L8K]	3.58
VSVNAQTMDGRTPLHLAAQRGHYR [L8M]	3.75
VSVNAQTNDGRTPLHLAAQRGHYR [L8N]	3.94
VSVNAQTPDGRTPLHLAAQRGHYR [L8P]	3.95
VSVNAQTQDGRTPLHLAAQRGHYR [L8Q]	4.05
VSVNAQTRDGRTPLHLAAQRGHYR [L8R]	3.37
VSVNAQTSDGRTPLHLAAQRGHYR [L8S]	3.5
VSVNAQTTDGRTPLHLAAQRGHYR [L8T]	3.77
VSVNAQTVDGRTPLHLAAQRGHYR [L8V]	3.92
VSVNAQTWDGRTPLHLAAQRGHYR [L8W]	3.11
VSVNAQTYDGRTPLHLAAQRGHYR [L8Y]	3.07

Variant	protein stability index
VSVNAQTLAGRTPLHLAAQRGHYR [D9A]	3.09
VSVNAQTLCGRTPLHLAAQRGHYR [D9C]	3.14
VSVNAQTLEGRTPLHLAAQRGHYR [D9E]	3.78
VSVNAQTLFGRTPLHLAAQRGHYR [D9F]	2.25
VSVNAQTLGGRTPLHLAAQRGHYR [D9G]	3.02
VSVNAQTLHGRTPLHLAAQRGHYR [D9H]	3.15
VSVNAQTLIGRTPLHLAAQRGHYR [D9I]	2.33
VSVNAQTLKGRTPLHLAAQRGHYR [D9K]	2.79
VSVNAQTLLGRTPLHLAAQRGHYR [D9L]	2.81
VSVNAQTLMGRTPLHLAAQRGHYR [D9M]	2.62
VSVNAQTLNGRTPLHLAAQRGHYR [D9N]	3.33
VSVNAQTLPGRTPLHLAAQRGHYR [D9P]	3.49
VSVNAQTLQGRTPLHLAAQRGHYR [D9Q]	2.92
VSVNAQTLRGRTPLHLAAQRGHYR [D9R]	3.31
VSVNAQTLSGRTPLHLAAQRGHYR [D9S]	3.04
VSVNAQTLTGRTPLHLAAQRGHYR [D9T]	3.22
VSVNAQTLVGRTPLHLAAQRGHYR [D9V]	2.9
VSVNAQTLWGRTPLHLAAQRGHYR [D9W]	2.35
VSVNAQTLYGRTPLHLAAQRGHYR [D9Y]	2.48
VSVNAQTLDARTPLHLAAQRGHYR [G10A]	3.2
VSVNAQTLDCRTPLHLAAQRGHYR [G10C]	3.05
VSVNAQTLDDRTPLHLAAQRGHYR [G10D]	3.69
VSVNAQTLDERTPLHLAAQRGHYR [G10E]	3.59
VSVNAQTLDFRTPLHLAAQRGHYR [G10F]	2.4

Variant	protein stability index
VSVNAQTLDHRTPLHLAAQRGHYR [G10H]	3
VSVNAQTLDIRTPLHLAAQRGHYR [G10I]	3.38
VSVNAQTLDKRTPLHLAAQRGHYR [G10K]	3.09
VSVNAQTLDLRTPLHLAAQRGHYR [G10L]	2.81
VSVNAQTLDMRTPLHLAAQRGHYR [G10M]	3.12
VSVNAQTLDNRTPLHLAAQRGHYR [G10N]	3.29
VSVNAQTLDPRTPLHLAAQRGHYR [G10P]	3.66
VSVNAQTLDQRTPLHLAAQRGHYR [G10Q]	3.6
VSVNAQTLDRRTPLHLAAQRGHYR [G10R]	3.55
VSVNAQTLDSRTPLHLAAQRGHYR [G10S]	3.57
VSVNAQTLDTRTPLHLAAQRGHYR [G10T]	3.21
VSVNAQTLDVRTPLHLAAQRGHYR [G10V]	3.32
VSVNAQTLDWRTPLHLAAQRGHYR [G10W]	2.48
VSVNAQTLDYRTPLHLAAQRGHYR [G10Y]	2.66
VSVNAQTLDGATPLHLAAQRGHYR [R11A]	3.5
VSVNAQTLDGCTPLHLAAQRGHYR [R11C]	2.91
VSVNAQTLDGDTPLHLAAQRGHYR [R11D]	3.31
VSVNAQTLDGETPLHLAAQRGHYR [R11E]	3.78
VSVNAQTLDGFTPLHLAAQRGHYR [R11F]	2.65
VSVNAQTLDGGTPLHLAAQRGHYR [R11G]	2.99
VSVNAQTLDGHTPLHLAAQRGHYR [R11H]	3.11
VSVNAQTLDGITPLHLAAQRGHYR [R11I]	2.73
VSVNAQTLDGKTPLHLAAQRGHYR [R11K]	3.51
VSVNAQTLDGLTPLHLAAQRGHYR [R11L]	2.9

Variant	protein stability index
VSVNAQTLDGMTPLHLAAQRGHYR [R11M]	2.77
VSVNAQTLDGNTPLHLAAQRGHYR [R11N]	3.42
VSVNAQTLDGPTPLHLAAQRGHYR [R11P]	3.38
VSVNAQTLDGQTPLHLAAQRGHYR [R11Q]	3.62
VSVNAQTLDGSTPLHLAAQRGHYR [R11S]	3.12
VSVNAQTLDGTTPLHLAAQRGHYR [R11T]	2.71
VSVNAQTLDGVTPLHLAAQRGHYR [R11V]	2.97
VSVNAQTLDGWTPLHLAAQRGHYR [R11W]	2.85
VSVNAQTLDGYTPLHLAAQRGHYR [R11Y]	2.98
VSVNAQTLDGRAPLHLAAQRGHYR [T12A]	3.48
VSVNAQTLDGRCPLHLAAQRGHYR [T12C]	2.81
VSVNAQTLDGRDPLHLAAQRGHYR [T12D]	3.68
VSVNAQTLDGREPLHLAAQRGHYR [T12E]	3.58
VSVNAQTLDGRFPLHLAAQRGHYR [T12F]	2.61
VSVNAQTLDGRGPLHLAAQRGHYR [T12G]	3.05
VSVNAQTLDGRHPLHLAAQRGHYR [T12H]	2.68
VSVNAQTLDGRIPLHLAAQRGHYR [T12I]	3.1
VSVNAQTLDGRKPLHLAAQRGHYR [T12K]	3.72
VSVNAQTLDGRLPLHLAAQRGHYR [T12L]	2.89
VSVNAQTLDGRMPLHLAAQRGHYR [T12M]	3.19
VSVNAQTLDGRNPLHLAAQRGHYR [T12N]	2.96
VSVNAQTLDGRPPLHLAAQRGHYR [T12P]	3.54
